Columns and labels:
[1] = target: the molecule itself; test: native MS
[2] = target: tryptophan synthase α-subunit TrpA from Zea mays, wild type (Zea mays); test: activity titration

Kd [2]: 500 nM
B1: tryptophan synthase β-subunit TrpB1 from Zea mays (enzyme)
chain: GRFGGKYVPETLMHALTELENAFHALATDDEFQKELDGILKDYVGRESPLYFAERLTEHYKRADGTGPLIYLKREDLNHRGAHKINNAVAQALLAKRLGKQRIIAETGAGQHGVATATVCARFGLQCIIYMGAQDMERQALNVFRMKLLGAEVRAVHSGTATLKDATSEAIRDWVTNVETTHYILGSVAGPHPYPMMVREFHKVIGKETRRQAMHKWGGKPDVLVACVGGGSNAMGLFHEFVEDQDVRLIGVEAAGHGVDTDKHAATLTKGQVGVLHGSMSYLLQDDDGQVIEPHSISAGLDYPGVGPEHSFLKDIGRAEYDSVTDQEALDAFKRVSRLEGIIPALETSHALAYLEKLCPTLPDGVRVVLNCSGRGDKDVHTASKYLDV
stoichiometry N [1]: 2

— PMC7293203 (Chembiochem : a European journal of chemical biology, 2019)
